Entries after “also recorded” stand apart in the source; their conditions may differ. One block for each molecule: values may come before it.
Legend:
cells depleted for EYA4 = assay: MTT cell cytotoxicity assay, genotoxic stress (ATR inhibitor or hydroxyurea); assay type: cell-based; conditions: EYA4-depleted versus control cells, FIG. 21B, FIG. 22A
Procedure: For genotoxic stress, cells were seeded into 96-well plates (200 cells/well). Twenty-four hours after seeding, increasing concentrations of ATR inhibitor (AZ20) or hydroxyurea were added to the culture (24 h pulse). Cell cytotoxicity was measured after 96 h following manufacturer's protocol (Abcam ab211091). Briefly, 50 μL serum-free media (no phenol red) and 50 μL MTT reagent was added to each well and incubated at 37° C. for 3 h. MTT media was replaced with 150 μL of MTT solvent and incubated with agitation for 15 mn. Absorbance was measured at 590 nm. The cell viability was calculated using the following equation: […]

TKCC02.1 cells = assay: Survival of TKCC02.1 cells, alone and in combination; assay type: cell-based; conditions: TKCC02.1, at doses tested, FIG. 35, FIG. 36
Procedure: Similar doses of EYA4i were tested alone and in combination with PARPi (olaparib) or Camptothecin (CPT).

[1] = tested on: HeLa cells (empty vector or knocked down for EYA4); assay: MTT cell cytotoxicity assay with PARP inhibitor; assay type: cell-based; conditions: EYA4-depleted versus control cells, FIG. 5D
Procedure: HeLa cells (empty vector or knocked down for EYA4) were seeded in 96-well plates. After 24 hrs, increasing concentrations of PARP inhibitor (olaparib) were added. Cell cytotoxicity was measured following manufacturer's protocol (Abcam ab211091). Briefly, 50 μL serum-free media and 50 μL MTT reagent was added to each well and incubated at 37° C. for 3 hrs. MTT media was replaced with 150 μL of MTT solvent and incubated with agitation for 15 min. Absorbance was measured at 590 nm.

RAD51 Y54F,Y315F [2] = target: T1, RAD51 Y54F,Y315F (UniProt Q06609 Q06609:1-339, Y54F,Y315F); assay: MST; +/- 7.3 nM, Hill 3.31; conditions: tags: pET11 construct, E. coli BLR(DE3)pLysS; label: Cy5
RAD51 WT [3] = target: T2, RAD51 WT (UniProt Q06609 Q06609:1-339); assay: MST; +/- 18.1 nM, Hill 2.66; conditions: tags: pET11 construct, E. coli BLR(DE3)pLysS; label: Cy5
T2 sequence (Q06609 whole entry, one chain of several): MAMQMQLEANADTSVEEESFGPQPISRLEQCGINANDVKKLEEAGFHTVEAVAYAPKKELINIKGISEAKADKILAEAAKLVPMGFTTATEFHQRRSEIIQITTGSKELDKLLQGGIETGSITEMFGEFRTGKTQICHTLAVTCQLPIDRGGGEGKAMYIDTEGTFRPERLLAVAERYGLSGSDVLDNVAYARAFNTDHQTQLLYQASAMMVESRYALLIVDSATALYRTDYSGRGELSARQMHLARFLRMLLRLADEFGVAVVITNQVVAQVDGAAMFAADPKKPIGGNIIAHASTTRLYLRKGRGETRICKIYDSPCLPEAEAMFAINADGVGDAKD

RAD51 Y54F,Y315F [4] = target: T1, RAD51 Y54F,Y315F; assay: MST; +/- 11.7 nM, Hill 7.07; conditions: tags: pET11 construct, E. coli BLR(DE3)pLysS; label: Cy5 on P1
RAD51 WT [5] = target: T2, RAD51 WT; assay: MST; +/- 162.5 nM, Hill 2.30; conditions: tags: pET11 construct, E. coli BLR(DE3)pLysS; label: Cy5 on P1
RAD51 Y54D,Y315D = RAD51 Y54D,Y315D (UniProt Q06609 Q06609:1-339, Y54D,Y315D); assay: MST; +/- 0.4951 uM, Hill 2.67; conditions: tags: pET11 construct, E. coli BLR(DE3)pLysS; label: Cy5 on P1
cy5-labeled ssDNA = assay: Microscale thermophoresis (MST) DNA binding, ssDNA
Procedure: (§1) A total of 12 concentrations of ligand proteins (e.g., EYA (1-365)) were serially diluted by 1:1 using MST buffer from 5 uM to 2.4 nM, 10 ul of each dose of ligand protein was mixed with 10 ul of cy5-labeled dsDNA/ssDNA supernatant. The mixture of EYA and DNA was loaded into premium capillaries for MST assay with parameters set up at auto-detected excitation power and medium MST power. Binding affinity was analyzed by MO. Affinity Analysis software (version 2.1.3, NanoTemper Technologies) using the signal from an MST-on time of 20 s. Three individual experiments were merged to generate standard deviation.
(§2) Cy5-labeled oligo P1 (T. T. Paull Curr Opin Genet Dev 71, 55-62 (2021)). from IDT ([…]-[…]; SEQ ID NO:1) was used as the ssDNA substrate. dsDNA was generated by annealing Cy5-labeled oligo P1 with its exact complement P2 […]-AAATAAGTAAAAG […] (SEQ ID NO:2). The annealed product was purified by SDS-PAGE then concentrated and quantified. For the long system assays, substrates were sourced from NEB. The ssDNA is the ϕX174 virion DNA and the dsDNA its replicative form ϕX174 RF I DNA.

cy5-labeled dsDNA = assay: Microscale thermophoresis (MST) DNA binding, dsDNA
Procedure: as §1, §2

[6] = EYA4 constructs binding ssDNA, Table 4
[7] = EYA4 constructs binding dsDNA, Table 4
[8] = RAD51 proteins binding ssDNA, Table 5
[9] = RAD51 proteins binding dsDNA, Table 5

Molecule: C[C@@H]1COCCN1c1cc(C2(S(C)(=O)=O)CC2)nc(-c2cccc3[nH]ccc23)n1 [AZ20]
- sensitivity of cells depleted for EYA4 (MTT) (cells depleted for EYA4): sensitive

Molecule: CC[C@@]1(O)C(=O)OCc2c1cc1n(c2=O)Cc2cc3ccccc3nc2-1 [CPT]
- lethality / efficacy as single agent (TKCC02.1 cells): not lethal; also recorded: neither PARPi nor CPT are lethal

Molecule: O=C(c1cc(Cc2n[nH]c(=O)c3ccccc23)ccc1F)N1CCN(C(=O)C2CC2)CC1 [Olaparib]
- sensitivity of cells depleted for EYA4 (survival, MTT) [1]: sensitive
- lethality / efficacy as single agent (TKCC02.1 cells; listed as PARPi): not lethal; also recorded: neither PARPi nor CPT are lethal

Molecule: NC(=O)NO [hydroxyurea]
- sensitivity of cells depleted for EYA4 (MTT) (cells depleted for EYA4): sensitive

B1: oligo P1 ssDNA (ssDNA)
DNA: TTATATCCTTTACTTTGAATTCTATGTTTAACCTTTTACTTATTTTGTATTAGCCGGATCCTTATTTCAATTATGTTCAT
- EC50 (RAD51 Y54F,Y315F [2]): 427 nM
- EC50 (RAD51 WT [3]): 515 nM

B2: P1/P2 dsDNA (dsDNA)
DNA 1: TTATATCCTTTACTTTGAATTCTATGTTTAACCTTTTACTTATTTTGTATTAGCCGGATCCTTATTTCAATTATGTTCAT
DNA 2: ATGAACATAATTGAAATAAGGATCCGGCTAATACAAAATAAGTAAAAGGTTAAACATAGAATTCAAAGTAAAGGATATAA
- EC50 (RAD51 Y54F,Y315F [4]): 561 nM
- EC50 (RAD51 WT [5]): 1160 nM
- EC50 (RAD51 Y54D,Y315D): 3070 nM

- EC50 (cy5-labeled ssDNA; [6]): 303 nM
- Kd (cy5-labeled ssDNA; ssDNA binding, FIG. 3C): 303 nM
- EC50 (cy5-labeled dsDNA; [7]): 733 nM
- Kd (cy5-labeled dsDNA; dsDNA binding, FIG. 3C): 732 nM
B3: 1-365: N-terminally m-cherry-tagged EYA4 (aa 1-365), purified (protein, UniProt O95677 1-365, looked up, fragment)
chain: MEDSQDLNEQSVKKTCTESDVSQSQNSRSMEMQDLASPHTLVGGGDTPGSSKLEKSNLSSTSVTTNGTGGENMTVLNTADWLLSCNTPSSATMSLLAVKTEPLNSSETTATTGDGALDTFTGSVITSSGYSPRSAHQYSPQLYPSKPYPHILSTPAAQTMSAYAGQTQYSGMQQPAVYTAYSQTGQPYSLPTYDLGVMLPAIKTESGLSQTQSPLQSGCLSYSPGFSTPQPGQTPYSYQMPGSSFAPSSTIYANNSVSNSTNFSGSQQDYPSYTAFGQNQYAQYYSASTYGAYMTSNNTADGTPSSTSTYQLQESLPGLTNQPGEFDTMQSPSTPIKDLDERTCRSSGSKSRGRGRKNNPSPPPD
modifications: N-terminal mCherry tag
notes: N-terminally m-cherry-tagged EYA4 (aa 1-365), purified

- EC50 (cy5-labeled ssDNA; [6]): 515 nM
- Kd (cy5-labeled dsDNA; DNA (type not stated), FIG. 3E): > 2000 nM
- EC50 (cy5-labeled dsDNA; [7]): 2200 nM
B4: SQTQ: phosphomimetic EYA4 double mutant in the ATM-ATR consensus site SQTQ (S209D, T211D) (protein, UniProt O95677 1-639, looked up, variant S209D T211D)
Protein phosphatase EYA4: MEDSQDLNEQSVKKTCTESDVSQSQNSRSMEMQDLASPHTLVGGGDTPGSSKLEKSNLSSTSVTTNGTGGENMTVLNTADWLLSCNTPSSATMSLLAVKTEPLNSSETTATTGDGALDTFTGSVITSSGYSPRSAHQYSPQLYPSKPYPHILSTPAAQTMSAYAGQTQYSGMQQPAVYTAYSQTGQPYSLPTYDLGVMLPAIKTESGLDQDQSPLQSGCLSYSPGFSTPQPGQTPYSYQMPGSSFAPSSTIYANNSVSNSTNFSGSQQDYPSYTAFGQNQYAQYYSASTYGAYMTSNNTADGTPSSTSTYQLQESLPGLTNQPGEFDTMQSPSTPIKDLDERTCRSSGSKSRGRGRKNNPSPPPDSDLERVFVWDLDETIIVFHSLLTGSYAQKYGKDPPMAVTLGLRMEEMIFNLADTHLFFNDLEECDQVHIDDVSSDDNGQDLSTYSFATDGFHAAASSANLCLPTGVRGGVDWMRKLAFRYRRVKELYNTYKNNVGGLLGPAKRDAWLQLRAEIEGLTDSWLTNALKSLSIISTRSNCINVLVTTTQLIPALAKVLLYSLGGAFPIENIYSATKIGKESCFERIMQRFGRKVVYVVIGDGVEEEQAAKKHNMPFWRISSHSDLLALHQALELEYL

- EC50 (cy5-labeled ssDNA; [8]): 515 nM
- EC50 (cy5-labeled dsDNA; [9]): 1160 nM
B5: WT: purified wild type RAD51 (protein, UniProt Q06609 2-339, looked up)
DNA repair protein RAD51 …: AMQMQLEANADTSVEEESFGPQPISRLEQCGINANDVKKLEEAGFHTVEAVAYAPKKELINIKGISEAKADKILAEAAKLVPMGFTTATEFHQRRSEIIQITTGSKELDKLLQGGIETGSITEMFGEFRTGKTQICHTLAVTCQLPIDRGGGEGKAMYIDTEGTFRPERLLAVAERYGLSGSDVLDNVAYARAFNTDHQTQLLYQASAMMVESRYALLIVDSATALYRTDYSGRGELSARQMHLARFLRMLLRLADEFGVAVVITNQVVAQVDGAAMFAADPKKPIGGNIIAHASTTRLYLRKGRGETRICKIYDSPCLPEAEAMFAINADGVGDAKD

- EC50 (cy5-labeled ssDNA; [8]): 427 nM
- EC50 (cy5-labeled dsDNA; [9]): 561 nM
B6: YF, YF: double-mutant RAD51 (Y54F, Y315F) that cannot be phosphorylated (protein, UniProt Q06609 2-339, looked up, variant Y54F Y315F)
DNA repair protein RAD51 …: AMQMQLEANADTSVEEESFGPQPISRLEQCGINANDVKKLEEAGFHTVEAVAFAPKKELINIKGISEAKADKILAEAAKLVPMGFTTATEFHQRRSEIIQITTGSKELDKLLQGGIETGSITEMFGEFRTGKTQICHTLAVTCQLPIDRGGGEGKAMYIDTEGTFRPERLLAVAERYGLSGSDVLDNVAYARAFNTDHQTQLLYQASAMMVESRYALLIVDSATALYRTDYSGRGELSARQMHLARFLRMLLRLADEFGVAVVITNQVVAQVDGAAMFAADPKKPIGGNIIAHASTTRLYLRKGRGETRICKIFDSPCLPEAEAMFAINADGVGDAKD

- EC50 (cy5-labeled ssDNA; [8]): > 5000 nM
- EC50 (cy5-labeled dsDNA; [9]): 3070 nM
B7: YD, YD: double phospho-mimetic RAD51 (Y54D, Y315D) (protein, UniProt Q06609 2-339, looked up, variant Y54D Y315D)
DNA repair protein RAD51 …: AMQMQLEANADTSVEEESFGPQPISRLEQCGINANDVKKLEEAGFHTVEAVADAPKKELINIKGISEAKADKILAEAAKLVPMGFTTATEFHQRRSEIIQITTGSKELDKLLQGGIETGSITEMFGEFRTGKTQICHTLAVTCQLPIDRGGGEGKAMYIDTEGTFRPERLLAVAERYGLSGSDVLDNVAYARAFNTDHQTQLLYQASAMMVESRYALLIVDSATALYRTDYSGRGELSARQMHLARFLRMLLRLADEFGVAVVITNQVVAQVDGAAMFAADPKKPIGGNIIAHASTTRLYLRKGRGETRICKIDDSPCLPEAEAMFAINADGVGDAKD

— patent US20250009750A1, “METHODS OF TREATING DISORDERS ASSOCIATED WITH EYA OVEREXPRESSION AND MUTATIONS” (The Board of Regents of the University of Texas System, priority 2023, published 2025)
